According to the supplement of paper PMC10567573:

B1: IRX6 (parent)
chain: YPCLEKPRIWSLAHTATASAVEGA

Variants of: B1
Test: protein stability index of a GFP-peptide fusion (GPS, HEK-293T) (PSI 1-6); higher = more stable
Settings: c terminus: a fixed tail appended
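Further: lentivirally expressed fusions sorted by FACS into six bins by GFP to DsRed ratio, PSI derived from sequencing read proportions per bin multiplied by bin number.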

Variant	protein stability index
YPELEKPRIWSLAHTATASAVEGA	1.85
YPFLEKPRIWSLAHTATASAVEGA	3.06
YPGLEKPRIWSLAHTATASAVEGA	2.91
YPHLEKPRIWSLAHTATASAVEGA	2.16
YPILEKPRIWSLAHTATASAVEGA	1.74
YPKLEKPRIWSLAHTATASAVEGA	3.76
YPLLEKPRIWSLAHTATASAVEGA	1.86
YPMLEKPRIWSLAHTATASAVEGA	2.28
YPNLEKPRIWSLAHTATASAVEGA	1.37
YPPLEKPRIWSLAHTATASAVEGA	2.12
YPQLEKPRIWSLAHTATASAVEGA	2.14
YPRLEKPRIWSLAHTATASAVEGA	2.76
YPSLEKPRIWSLAHTATASAVEGA	2.46
YPTLEKPRIWSLAHTATASAVEGA	2.85
YPVLEKPRIWSLAHTATASAVEGA	1.66
YPWLEKPRIWSLAHTATASAVEGA	1.68
YPYLEKPRIWSLAHTATASAVEGA	1.54
YPCAEKPRIWSLAHTATASAVEGA	4.55
YPCEEKPRIWSLAHTATASAVEGA	2.64
YPCFEKPRIWSLAHTATASAVEGA	2.58
YPCIEKPRIWSLAHTATASAVEGA	2.46
YPCKEKPRIWSLAHTATASAVEGA	2.37
YPCMEKPRIWSLAHTATASAVEGA	4.4
YPCPEKPRIWSLAHTATASAVEGA	2.5

Variant	protein stability index
YPCQEKPRIWSLAHTATASAVEGA	1.49
YPCSEKPRIWSLAHTATASAVEGA	1.81
YPCTEKPRIWSLAHTATASAVEGA	3.03
YPCVEKPRIWSLAHTATASAVEGA	2.07
YPCWEKPRIWSLAHTATASAVEGA	2.68
YPCYEKPRIWSLAHTATASAVEGA	2.53
YPCLAKPRIWSLAHTATASAVEGA	1.95
YPCLCKPRIWSLAHTATASAVEGA	3.7
YPCLDKPRIWSLAHTATASAVEGA	2.81
YPCLFKPRIWSLAHTATASAVEGA	3.7
YPCLGKPRIWSLAHTATASAVEGA	3.15
YPCLHKPRIWSLAHTATASAVEGA	2.37
YPCLKKPRIWSLAHTATASAVEGA	2.92
YPCLLKPRIWSLAHTATASAVEGA	3.24
YPCLNKPRIWSLAHTATASAVEGA	2.34
YPCLPKPRIWSLAHTATASAVEGA	2.63
YPCLQKPRIWSLAHTATASAVEGA	3.22
YPCLRKPRIWSLAHTATASAVEGA	3.21
YPCLSKPRIWSLAHTATASAVEGA	2.98
YPCLTKPRIWSLAHTATASAVEGA	3.97
YPCLVKPRIWSLAHTATASAVEGA	4.3
YPCLWKPRIWSLAHTATASAVEGA	1.9
YPCLYKPRIWSLAHTATASAVEGA	2.68
YPCLEFPRIWSLAHTATASAVEGA	2.54

Variant	protein stability index
YPCLEGPRIWSLAHTATASAVEGA	2.34
YPCLEHPRIWSLAHTATASAVEGA	1.79
YPCLEIPRIWSLAHTATASAVEGA	1.59
YPCLELPRIWSLAHTATASAVEGA	1.2
YPCLEMPRIWSLAHTATASAVEGA	2.41
YPCLENPRIWSLAHTATASAVEGA	1.48
YPCLEPPRIWSLAHTATASAVEGA	2.1
YPCLERPRIWSLAHTATASAVEGA	1.88
YPCLESPRIWSLAHTATASAVEGA	3.68
YPCLEVPRIWSLAHTATASAVEGA	2.61
YPCLEWPRIWSLAHTATASAVEGA	2.69
YPCLEKARIWSLAHTATASAVEGA	3.29
YPCLEKCRIWSLAHTATASAVEGA	2.69
YPCLEKDRIWSLAHTATASAVEGA	4.03
YPCLEKERIWSLAHTATASAVEGA	2.27
YPCLEKGRIWSLAHTATASAVEGA	2.84
YPCLEKHRIWSLAHTATASAVEGA	2.44
YPCLEKKRIWSLAHTATASAVEGA	3.5
YPCLEKMRIWSLAHTATASAVEGA	2.92
YPCLEKQRIWSLAHTATASAVEGA	2.32
YPCLEKTRIWSLAHTATASAVEGA	3.24
YPCLEKVRIWSLAHTATASAVEGA	1.89
YPCLEKYRIWSLAHTATASAVEGA	2.59
YPCLEKPCIWSLAHTATASAVEGA	3.13

Variant	protein stability index
YPCLEKPDIWSLAHTATASAVEGA	3.96
YPCLEKPEIWSLAHTATASAVEGA	2.22
YPCLEKPFIWSLAHTATASAVEGA	2.49
YPCLEKPHIWSLAHTATASAVEGA	1.83
YPCLEKPIIWSLAHTATASAVEGA	2.87
YPCLEKPLIWSLAHTATASAVEGA	3.04
YPCLEKPMIWSLAHTATASAVEGA	2.79
YPCLEKPNIWSLAHTATASAVEGA	3.06
YPCLEKPPIWSLAHTATASAVEGA	2.2
YPCLEKPQIWSLAHTATASAVEGA	1.96
YPCLEKPVIWSLAHTATASAVEGA	2.48
YPCLEKPYIWSLAHTATASAVEGA	2.17
YPCLEKPRAWSLAHTATASAVEGA	3.17
YPCLEKPRCWSLAHTATASAVEGA	1.98
YPCLEKPRDWSLAHTATASAVEGA	3.49
YPCLEKPREWSLAHTATASAVEGA	3.59
YPCLEKPRFWSLAHTATASAVEGA	2.3
YPCLEKPRGWSLAHTATASAVEGA	2.2
YPCLEKPRHWSLAHTATASAVEGA	1.25
YPCLEKPRKWSLAHTATASAVEGA	2.46
YPCLEKPRLWSLAHTATASAVEGA	2.98
YPCLEKPRMWSLAHTATASAVEGA	3.85
